Holding throughout (format): in vivo
Assay [1] concerns Balb/C mice. As to the kind of experiment: Zymosan-induced ear swelling in an inflammatory mouse model (Example 1). Particulars: daily gavage 0.1 mg lactoferrin and/or 50 mg glycine, versus non-supplemented mice. The protocol: Balb/C mice (8 weeks of age, Charles River, Maastricht, The Netherlands) were randomly assigned two control and three test groups and supplemented daily for three days with 0.1 mg lactoferrin (DMV, Veghel, The Netherlands), 50 mg glycine (Sigma, Zwijndrecht, The Netherlands) or a combination of both components (test groups 3, 4 and 5 respectively) or vehicle (control groups 1 and 2) was administered by gavage. At day two of the supplementation ear thickness was measured using a micrometer (Mitutoyo Digimatic, Veenendaal, The Netherlands) Subsequently 25 μl 0.5% zymosan (Sigma) in PBS (group 2-5) or vehicle (group 1) was injected subcutaneously in both ears. Ear thickness was measured 3, 6 and 24 hours (example 1) after injection after which the animals were sacrificed.
In mice injected in the ear with zymosan, lactoferrin (LF) and glycine (Gly) supplemented mice show a highest decrease in ear swelling when compared to non-supplemented mice, see Table 1. A clear synergistic effect of LF and Gly is observed.

Assay [2] deals with TNF-α producing cells. As to the kind of experiment: Ex-vivo ELISpot of TNF-α producing spleen cells from supplemented mice with zymosan-induced ear inflammation (Example 2). Particulars: 1 μg/ml LPS, after three days of oral supplementation. How it is done:
The spleen was removed and pushed through a cell strainer. Red blood cell lysis was performed in 5 ml of could lysis buffer (4.15 g NH4Cl, 0.5 g KHCO3 and 18.6 mg Na2EDTA in 1 liter water at pH 7,3) for 5 minutes. Cells were washed twice in could RPMI (Invitrogen, Merelbeke, Belgium) and after centrifugation diluted to a concentration of 1.10^7 cells/ml. TNF-α producing cells were detected by ELISpot assay in the absence or presence of 1 μg/ml lipopolysaccharide (Sigma) (example 2).
Spleen cells were collected from mice with a zymosan-induced inflammation in the ear after three days of oral supplementation with water (=control), lactoferrin (LF), glycine or a combination of LF and glycine. The number of TNF-α producing cells was determined using an ELISpot assay. LF and glycine inhibit the LPS stimulated number of TNF producing cells by 92% and 97% respectively (back to not zymosan treated control levels). The combination of glycine and lactoferrin inhibited the number of TNF-α positive cells 50% below the […] injected control. This unexpected high rate of inhibition makes the combination of glycine with lactoferrin an excellent choice for the treatment of inflammatory diseases.

The test system of assay [3] is Balb/C mice. Kind of assay: Dose response of lactoferrin in zymosan-induced ear swelling mouse model (Example 3).

We go through one molecule from patent US20100215631A1, “ANTI-INFLAMMATORY COMPOSITION COMPRISING GLYCINE AND LACTOFERRIN AND THE USE THEREOF” (priority 2006, published 2010).

B1: lactoferrin (protein, UniProt P24627 20-708, looked up)
Lactotransferrin: APRKNVRWCTISQPEWFKCRRWQWRMKKLGAPSITCVRRAFALECIRAIAEKKADAVTLDGGMVFEAGRDPYKLRPVAAEIYGTKESPQTHYYAVAVVKKGSNFQLDQLQGRKSCHTGLGRSAGWIIPMGILRPYLSWTESLEPLQGAVAKFFSASCVPCIDRQAYPNLCQLCKGEGENQCACSSREPYFGYSGAFKCLQDGAGDVAFVKETTVFENLPEKADRDQYELLCLNNSRAPVDAFKECHLAQVPSHAVVARSVDGKEDLIWKLLSKAQEKFGKNKSRSFQLFGSPPGQRDLLFKDSALGFLRIPSKVDSALYLGSRYLTTLKNLRETAEEVKARYTRVVWCAVGPEEQKKCQQWSQQSGQNVTCATASTTDDCIVLVLKGEADALNLDGGYIYTAGKCGLVPVLAENRKSSKHSSLDCVLRPTEGYLAVAVVKKANEGLTWNSLKDKKSCHTAVDRTAGWNIPMGLIVNQTGSCAFDEFFSQSCAPGADPKSRLCALCAGDDQGLDKCVPNSKEKYYGYTGAFRCLAEDVGDVAFVKNDTVWENTNGESTADWAKNLNREDFRLLCLDGTRKPVTEAQSCHLAVAPNHAVVSRSDRAAHVKQVLLHQQALFGKNGKNCPDKFCLFKSETKNLLFNDNTECLAKLGGRPTYEEYLGTEYVTAIANLKKCSTSPLLEACAFLTR
notes: globular multifunctional protein of the transferrin family (DMV, Veghel)
Regarding B1, the “Decrease in ear swelling” value in assay [1] (3 hrs after zymosan injection in ears) is 39 ± 12; in assay [1] (6 hrs after zymosan injection in ears), 53 ± 17. In assay [2], the “Inhibition of the LPS stimulated number of TNF producing cells” value turned out to be 92%. Also, the swelling in assay [3] (0.1 mg LF daily by gavage, time 1 hr) came out at 78; in assay [3] (0.1 mg LF daily by gavage, time 2 hr), 108; in assay [3] (0.1 mg LF daily by gavage, time 4 hr), 109; in assay [3] (1 mg LF daily by gavage, time 1 hr), 73; in assay [3] (1 mg LF daily by gavage, time 2 hr) it was 105; in assay [3] (1 mg LF daily by gavage, time 4 hr), 121. In addition, the swelling in assay [3] (5 mg LF daily by gavage, time 1 hr) amounted to 99; in assay [3] (5 mg LF daily by gavage, time 2 hr), 153; in assay [3] (5 mg LF daily by gavage, time 4 hr), 204. In assay [3] (mouse, daily gavage, higher than 0), the Optimal dose result is “less than 5 mg”.
